Reference: patent US20260008830A1

Molecular target: T1, IL-22 receptors R1 and R2 on HEK-Blue IL-22 reporter cells (UniProt Q8N6P7)
T1 sequence (looked up) 1: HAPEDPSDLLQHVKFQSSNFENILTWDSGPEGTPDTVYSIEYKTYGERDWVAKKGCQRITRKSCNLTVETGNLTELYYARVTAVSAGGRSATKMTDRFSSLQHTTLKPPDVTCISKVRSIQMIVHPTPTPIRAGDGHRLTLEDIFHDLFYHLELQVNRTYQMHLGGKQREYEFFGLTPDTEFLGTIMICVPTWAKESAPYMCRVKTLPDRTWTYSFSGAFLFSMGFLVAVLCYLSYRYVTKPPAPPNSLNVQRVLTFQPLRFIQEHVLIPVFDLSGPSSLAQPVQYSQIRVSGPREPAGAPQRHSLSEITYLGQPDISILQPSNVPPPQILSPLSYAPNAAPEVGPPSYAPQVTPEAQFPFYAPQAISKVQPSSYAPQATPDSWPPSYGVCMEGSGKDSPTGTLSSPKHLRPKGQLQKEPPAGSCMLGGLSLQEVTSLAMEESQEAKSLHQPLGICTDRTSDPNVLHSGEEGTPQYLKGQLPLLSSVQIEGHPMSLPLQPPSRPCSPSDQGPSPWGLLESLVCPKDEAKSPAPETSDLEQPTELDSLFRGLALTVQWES
T1 sequence (looked up) 2: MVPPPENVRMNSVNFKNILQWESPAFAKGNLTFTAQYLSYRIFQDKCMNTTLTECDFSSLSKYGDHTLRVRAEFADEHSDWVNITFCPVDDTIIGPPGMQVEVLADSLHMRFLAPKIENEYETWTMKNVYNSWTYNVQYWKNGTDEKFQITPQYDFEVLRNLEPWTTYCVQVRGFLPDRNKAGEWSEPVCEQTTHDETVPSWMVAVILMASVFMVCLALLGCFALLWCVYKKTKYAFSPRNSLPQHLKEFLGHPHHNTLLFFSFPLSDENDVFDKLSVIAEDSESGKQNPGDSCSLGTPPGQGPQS
Test: cell-based or functional assay

B1: IL22 WT (monomeric IL22 based on the IL22 crystal, PDB 3dlq, expressed in bacteria) (ligand)
chain: ARLDKSNFQQPYITNRTFMLAKEASLADNNTDVRLIGEKLFHGVSMSERCYLMKQVLNFTLEEVLFPQSDRFQPYMQEVVPFLARLSNRLSTCHIEGDDLHIQRNVQKLKDTVKKLGESGEIKAIGELDLLFMSLRNACI
  Kd (apparent, HEK-Blue IL-22 reporter): 0.017 nM
